What was measured:
[1] = RP-HPLC MAG-Tn3 content before and after 0.2 μm filtration; format: physicochemical; settings: L-arginine-L-arginine-mono-hydrochloride buffer system
Protocol: RP-HPLC was performed to assess MAG-Tn3 content in the formulations before and after filtration with a 0.2 μm syringe filter. A Waters 2996 HPLC equipped with UV detection was used with a Poros R 1/10 column from Applied Biosciences and a 0-100% acetonitrile in 0.1% triflouroacetic acid gradient. Size-exclusion chromatography was performed using a Waters 2996 HPLC equipped with a fluorescence detector (Waters) to assess the aggregation profiles of the resulting formulations using a TSKgel G3000PWxl column (Tosoh Bioscience LLC) and a mobile phase of 200 mM NaCl. SDS-PAGE analysis was done using 4-12% Bis-Tris gels (Invitrogen) and MES running buffer (Invitrogen). The gels were stained using Invitrogen's SilverQuest. Centrifuged and non-centrifuged samples were run on gel to assess the presence of precipitate in the formulations. Centrifugation was performed for 15 minutes at 18 000 g. […]
RP-HPLC was performed to assess MAG-Tn3 content in the formulations before and after filtration with a 0.2 μm syringe filter. […] Size-exclusion chromatography was performed using a Waters 2996 HPLC equipped with a fluorescence detector (Waters) to assess the aggregation profiles of the resulting formulations using a TSKgel G3000PWxl column (Tosoh Bioscience LLC) and a mobile phase of 200 mM NaCl. […]

[2] = value used in equation 1; cited from earlier work

Structure (SMILES)	dose up to which MAG-Tn3 appears soluble ([1]; with CpG7909)	solubility ([1]; with CpG7909, final reconstituted vaccine, read-out: concentration up to which MAG-Tn3 appears soluble)	pKa [2]
CC[C@H](C)[C@H](NC(=O)CNC(=O)[C@@H](NC(=O)[C@H](Cc1ccccc1)NC(=O)[C@H](CCCCN)NC(=O)[C@H](CO)NC(=O)[C@H](CC(N)=O)NC(=O)[C@H](C)NC(=O)[C@H](CCCCN)NC(=O)[C@@H](NC(=O)[C@H](Cc1ccc(O)cc1)NC(=O)[C@H](CCC(N)=O)NC(=O)C(NC(=O)C(NC(=O)C(N)CO[C@H]1O[C@H](CO)[C@H](O)[C@H](O)[C@H]1NC(C)=O)C(C)O[C@H]1O[C@H](CO)[C@H](O)[C@H](O)[C@H]1NC(C)=O)C(C)O[C@H]1O[C@H](CO)[C@H](O)[C@H](O)[C@H]1NC(C)=O)[C@@H](C)CC)[C@@H](C)CC)C(=O)N[C@H](C(=O)N[C@@H](CCC(=O)O)C(=O)N[C@@H](CC(C)C)C(=O)NCCCC[C@H](NC(=O)[C@H](CC(C)C)NC(=O)[C@H](CCC(=O)O)NC(=O)[C@@H](NC(=O)[C@@H](NC(=O)CNC(=O)[C@@H](NC(=O)[C@H](Cc1ccccc1)NC(=O)[C@H](CCCCN)NC(=O)[C@H](CO)NC(=O)[C@H](CC(N)=O)NC(=O)[C@H](C)NC(=O)[C@H](CCCCN)NC(=O)[C@@H](NC(=O)[C@H](Cc1ccc(O)cc1)NC(=O)[C@H](CCC(N)=O)NC(=O)C(NC(=O)C(NC(=O)C(N)CO[C@H]1O[C@H](CO)[C@H](O)[C@H](O)[C@H]1NC(C)=O)C(C)O[C@H]1O[C@H](CO)[C@H](O)[C@H](O)[C@H]1NC(C)=O)C(C)O[C@H]1O[C@H](CO)[C@H](O)[C@H](O)[C@H]1NC(C)=O)[C@@H](C)CC)[C@@H](C)CC)[C@@H](C)CC)[C@@H](C)O)C(=O)NCCCC[C@H](NC(=O)[C@H](CCCCNC(=O)[C@H](CC(C)C)NC(=O)[C@H](CCC(=O)O)NC(=O)[C@@H](NC(=O)[C@@H](NC(=O)CNC(=O)[C@@H](NC(=O)[C@H](Cc1ccccc1)NC(=O)[C@H](CCCCN)NC(=O)[C@H](CO)NC(=O)[C@H](CC(N)=O)NC(=O)[C@H](C)NC(=O)[C@H](CCCCN)NC(=O)[C@@H](NC(=O)[C@H](Cc1ccc(O)cc1)NC(=O)[C@H](CCC(N)=O)NC(=O)C(NC(=O)C(NC(=O)C(N)CO[C@H]1O[C@H](CO)[C@H](O)[C@H](O)[C@H]1NC(C)=O)C(C)O[C@H]1O[C@H](CO)[C@H](O)[C@H](O)[C@H]1NC(C)=O)C(C)O[C@H]1O[C@H](CO)[C@H](O)[C@H](O)[C@H]1NC(C)=O)[C@@H](C)CC)[C@@H](C)CC)[C@@H](C)CC)[C@@H](C)O)NC(=O)[C@H](CC(C)C)NC(=O)[C@H](CCC(=O)O)NC(=O)[C@@H](NC(=O)[C@@H](NC(=O)CNC(=O)[C@@H](NC(=O)[C@H](Cc1ccccc1)NC(=O)[C@H](CCCCN)NC(=O)[C@H](CO)NC(=O)[C@H](CC(N)=O)NC(=O)[C@H](C)NC(=O)[C@H](CCCCN)NC(=O)[C@@H](NC(=O)[C@H](Cc1ccc(O)cc1)NC(=O)[C@H](CCC(N)=O)NC(=O)C(NC(=O)C(NC(=O)C(N)CO[C@H]1O[C@H](CO)[C@H](O)[C@H](O)[C@H]1NC(C)=O)C(C)O[C@H]1O[C@H](CO)[C@H](O)[C@H](O)[C@H]1NC(C)=O)C(C)O[C@H]1O[C@H](CO)[C@H](O)[C@H](O)[C@H]1NC(C)=O)[C@@H](C)CC)[C@@H](C)CC)[C@@H](C)CC)[C@@H](C)O)C(=O)NCCC(=O)O)[C@@H](C)O (stereo partly drawn) [MAG-Tn3]	≤ 450 μg/dose	≤ 900 µg/mL	–
N=C(N)NCCC[C@H](N)C(=O)O [Arginine]	–	–	molar ratios of Arg:ArgHCl (Arg pKa = 8.991).

Reference: US20170119864A1, “SACCHARIDE VACCINE FORMULATION” (GLAXOSMITHKLINE BIOLOGICALS S.A., priority 2013, published 2017)
